Here are results for four molecules from US20220119534A1 (DRAGONFLY THERAPEUTICS, published 2022).

One may read the Kd as the free concentration of one partner at which half of the binding sites on the other are occupied at equilibrium, for simple one-to-one binding. In general, koff refers to the first-order rate constant of dissociation. What is called kon is the rate constant with which the complex forms.

The target in assay [1] is T1, Human CD16a V158 (FcγRIIIa V158) (human, UniProt P08637 17-208, biotinylated (site not stated)).
T1 construct: V158 is the allele name in mature numbering; also called hCD16aV; hCD16a V158
T1 sequence (P08637 17-208 F176V limits assumed): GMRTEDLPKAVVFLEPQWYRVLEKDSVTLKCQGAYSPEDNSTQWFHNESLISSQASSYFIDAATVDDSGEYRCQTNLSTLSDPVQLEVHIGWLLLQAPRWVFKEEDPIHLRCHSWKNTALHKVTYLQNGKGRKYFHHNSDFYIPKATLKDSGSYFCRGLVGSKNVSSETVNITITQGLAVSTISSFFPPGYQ
The assay can be described thus: SPR; biotinylated CD16a V158 captured on SA chip, TriNKET as analyte; 1:1 kinetic fit; after 4 wks 40 C in HST pH 6.0, n=3. (In general: Surface plasmon resonance follows binding to a sensor surface in real time, without labels.)

Assay [2] has as its target T2, mFc-hNKG2D (human, UniProt P26718 73-216).
T2 construct: extracellular domain; Made in house (Dragonfly Tx); the order of tag and ECD follows the name mFc-hNKG2D; also called mFc-tagged human NKG2D; not shown: mouse Fc tag
T2 sequence (looked up): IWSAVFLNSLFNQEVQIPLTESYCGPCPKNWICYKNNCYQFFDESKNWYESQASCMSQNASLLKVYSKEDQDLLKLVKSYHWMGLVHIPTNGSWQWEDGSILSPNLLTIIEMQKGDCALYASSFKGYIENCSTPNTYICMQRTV
The experiment in a line: SPR Biacore 8K 37 C; mFc-hNKG2D captured on anti-mFc chip, TriNKET as analyte; steady state fit; after 4 wks 40 C in CST pH 7.0, n=3.

Assay [3] deals with T3, Human CLEC12A-His (human, UniProt Q5QGZ9 65-265).
T3 construct: Recombinant soluble protein made in house (Dragonfly Tx); The hCLEC12A spot of the HuProt array is written under this molecule as well; also called hCLEC12A-His; hCLEC12A; not shown: His tag
T3 sequence: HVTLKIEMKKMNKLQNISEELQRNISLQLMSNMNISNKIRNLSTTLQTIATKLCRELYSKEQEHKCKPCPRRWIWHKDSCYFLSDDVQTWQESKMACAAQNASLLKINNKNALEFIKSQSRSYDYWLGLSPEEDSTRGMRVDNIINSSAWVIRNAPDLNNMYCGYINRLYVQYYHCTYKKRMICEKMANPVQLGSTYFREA
The assay can be described thus: SPR Biacore 8K 37 C; TriNKET captured on anti-hFc chip, hCLEC12A-His as analyte; 1:1 fit; control sample, n=2.

For assay [4], the target named is T3, Human CLEC12A-His. The assay can be described thus: SPR Biacore 8K 37 C; TriNKET captured on anti-hFc chip, hCLEC12A-His as analyte; classical 1:1 fit.
Assay [5] has as its target T4, Human CD16a V158 (FcγRIIIa V158) (human, UniProt P08637 17-208, biotinylated).
T4 construct: Bought recombinant receptor; also called hCD16aV; hFcγRIIIa V158
The experiment in a line: SPR; control sample.

Assay [6] deals with T5, mFc-hNKG2D (recombinant mFc-tagged human NKG2D dimer) (human, UniProt P26718 73-216).
T5 construct: extracellular domain; Made in house; not shown: mouse Fc tag
T5 sequence (looked up): T2 sequence (looked up)
The assay can be described thus: SPR; control sample.

The target of assay [7] is T6, Human CD16b (FcγRIIIb) (human, UniProt O75015 17-200, limits assumed, biotinylated).
T6 construct: Bought recombinant receptor; also called hFcγRIIIb; CD16b (FcγR3b)
T6 sequence (O75015 17-200 limits assumed): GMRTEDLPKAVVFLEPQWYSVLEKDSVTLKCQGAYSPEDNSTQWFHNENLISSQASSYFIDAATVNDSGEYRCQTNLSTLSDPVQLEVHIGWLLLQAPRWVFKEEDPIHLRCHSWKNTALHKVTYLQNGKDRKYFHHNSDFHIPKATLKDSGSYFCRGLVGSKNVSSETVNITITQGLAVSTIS
The experiment in a line: SPR 25C, average.

The target of assay [8] is T7, Human CLEC12A-His (recombinant, K244 WT) (human, UniProt Q5QGZ9 65-265).
T7 construct: Made in house (Dragonfly Tx); also called hCLEC12A; hCLEC12A-His; not shown: His tag
T7 sequence: T3 sequence
The assay can be described thus: SPR, two-state fit (kd1); after forced oxidation.

The target of assay [9] is T4, Human CD16a V158 (FcγRIIIa V158). The assay can be described thus: SPR; control sample. The source holds these as a separate data set.
The target in assay [10] is T5, mFc-hNKG2D (recombinant mFc-tagged …). The assay can be described thus: SPR; control sample. The source holds these as a separate data set.
Assay [11] concerns the target T8, Cynomolgus FcRn (cynomolgus monkey, UniProt Q8SPV9 24-297; Q8SPW0 21-119).
T8 construct: Bought recombinant receptor; also called cFcRn; cyno FcRn
The assay can be described thus: SPR 25C, pH 6.0, FcRn on chip, steady state fit (n = 3).

Assay [12] deals with T9, Human CLEC12A-K244Q-His (human, UniProt Q5QGZ9 65-265).
T9 construct: Polymorphic variant; also called hCLEC12A (Q244); not shown: His tag
T9 chain: T3 sequence with K180Q
The assay can be described thus: SPR, hCLEC12A (Q244) variant.

Assay [13] has as its target T10, Human CD16a F158 (human, UniProt P08637 17-208, biotinylated).
T10 construct: Bought recombinant receptor; also called hFcγRIIIa F158
The assay can be described thus: SPR, steady state fit; average for AB0192.

Assay [14] deals with T11, Cynomolgus CD16 (cynomolgus monkey, UniProt Q8SPW2 17-208, biotinylated).
T11 construct: Bought recombinant receptor; also called cFcγRIII; Cynomolgus FcγRIII
T11 sequence (Q8SPW2 17-208 limits assumed): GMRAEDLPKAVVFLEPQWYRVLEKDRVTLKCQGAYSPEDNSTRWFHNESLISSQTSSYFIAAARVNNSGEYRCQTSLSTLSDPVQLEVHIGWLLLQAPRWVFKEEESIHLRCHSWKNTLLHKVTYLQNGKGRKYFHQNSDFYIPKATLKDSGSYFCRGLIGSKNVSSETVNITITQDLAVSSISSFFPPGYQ
The experiment in a line: SPR, steady state fit; average for AB0192.

Assay [15] concerns the target T12, recombinant cynomolgus FcRn (cynomolgus monkey, UniProt Q8SPV9 24-297; Q8SPW0 21-119).
T12 construct: also called cFcRn; cyno FcRn
The experiment in a line: SPR 25C, pH 6.0, steady state; pH 6.0; fourth replicate.

In assay [16] the target is T13, recombinant human CD16a F158 (human, UniProt P08637 17-208).
T13 construct: also called FcγRIIIa F158
T13 sequence (P08637 17-208 limits assumed): as the sequence (P08637 17-208 F176V limits assumed) above, with V160F counted along it
The assay can be described thus: SPR 25C, steady state.

Where a chain is given by its changes, count along the chain named. Names and notes keep the numbering of the source. Values joined by “and” are separate entries in the source; they are usually repeats but may differ in a detail not shown here. Equal values may be shown once. Read-outs that look alike come from different tables or passages of the source.

T4 sequence (P08637 17-208 F176V limits assumed): as the sequence (P08637 17-208 F176V limits assumed) above
T10 sequence (P08637 17-208 limits assumed): as the sequence (P08637 17-208 F176V limits assumed) above, with V160F counted along it
T8 sequence (Q8SPV9 24-297 limits assumed, chain 1 of 2): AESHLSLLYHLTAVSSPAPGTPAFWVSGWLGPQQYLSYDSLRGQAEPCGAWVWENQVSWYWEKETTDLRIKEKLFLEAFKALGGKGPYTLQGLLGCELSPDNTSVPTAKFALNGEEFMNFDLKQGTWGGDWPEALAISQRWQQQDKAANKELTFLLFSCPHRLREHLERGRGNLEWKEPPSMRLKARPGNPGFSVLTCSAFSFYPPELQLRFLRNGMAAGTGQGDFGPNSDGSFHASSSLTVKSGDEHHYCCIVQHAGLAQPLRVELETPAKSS
T8 sequence (Q8SPW0 21-119 limits assumed, chain 2 of 2): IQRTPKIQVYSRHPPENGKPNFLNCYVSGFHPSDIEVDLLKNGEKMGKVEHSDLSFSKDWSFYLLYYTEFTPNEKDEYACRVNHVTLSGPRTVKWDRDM
T12 sequence (Q8SPV9 24-297 limits assumed, chain 1 of 2): as the sequence (Q8SPV9 24-297 limits assumed, chain 1 of 2) above
T12 sequence (Q8SPW0 21-119 limits assumed, chain 2 of 2): as the sequence (Q8SPW0 21-119 limits assumed, chain 2 of 2) above

B1: F3'-1602 TriNKET (bispecific antibody, human IgG1, kappa)
chain: QLQLQESGPGLVKPSETLSLTCTVSGFSLTNYGLHWIRQPPGKCLEWIGVIWSGGKTDYNPSLKSRVTISKDTSKNQFSLKLSSVQAADTAVYYCAKYDYDDSLDYWGQGTLVTVSSGGGGSGGGGSGGGGSGGGGSDIQMTQSPSSLSASVGDRVTITCHASQNINFWLSWYQQKPGKAPKLLIYEASNLHTGVPSRFSGSGSGTRFTLTISSLQPEDIATYYCQQSHSYPLTFGCGTKLEIKGSDKTHTCPPCPAPELLGGPSVFLFPPKPKDTLMISRTPEVTCVVVDVSHEDPEVKFNWYVDGVEVHNAKTKPREEQYNSTYRVVSVLTVLHQDWLNGKEYKCKVSNKALPAPIEKTISKAKGQPREPRVYTLPPCRDELTKNQVSLTCLVKGFYPSDIAVEWESNGQPENNYKTTPPVLVSDGSFTLYSKLTVDKSRWQQGNVFSCSVMHEALHNHYTQKSLSLSPG
heavy: EVQLVESGGGLVKPGGSLRLSCAASGFTFSSYSMNWVRQAPGKGLEWVSSISSSSSYIYYADSVKGRFTISRDNAKNSLYLQMNSLRAEDTAVYYCARGAPIGAAAGWFDPWGQGTLVTVSSASTKGPSVFPLAPSSKSTSGGTAALGCLVKDYFPEPVTVSWNSGALTSGVHTFPAVLQSSGLYSLSSVVTVPSSSLGTQTYICNVNHKPSNTKVDKKVEPKSCDKTHTCPPCPAPELLGGPSVFLFPPKPKDTLMISRTPEVTCVVVDVSHEDPEVKFNWYVDGVEVHNAKTKPREEQYNSTYRVVSVLTVLHQDWLNGKEYKCKVSNKALPAPIEKTISKAKGQPREPQVCTLPPSRDELTENQVSLTCLVKGFYPSDIAVEWESNGQPENNYKTTPPVLDSDGSFFLYSWLTVDKSRWQQGNVFSCSVMHEALHNHYTQKSLSLSPG
light: DIQMTQSPSSVSASVGDRVTITCRASQGISSWLAWYQQKPGKAPKLLIYAASSLQSGVPSRFSGSGSGTDFTLTISSLQPEDFATYYCQQGVSFPRTFGGGTKVEIKRTVAAPSVFIFPPSDEQLKSGTASVVCLLNNFYPREAKVQWKVDNALQSGNSQESVTEQDSKDSTYSLSSTLTLSKADYEKHKVYACEVTHQGLSSPVTKSFNRGEC
notes: Trispecific F3' format: CLEC12A scFv-Fc paired with NKG2D Fab-Fc; Stressed and control samples of the stability studies are the same molecule; also called AB0237
As for B1, the Kd in assay [1] is 201 nM; in [2], 711 nM; in assay [3], 0.98 nM; in [4], 0.8 nM. The figures for the koff in [1], in assay [3] and in assay [4] were 0.0165 s⁻¹, 0.000735 s⁻¹ and 0.000895 s⁻¹, respectively. The kon in assay [1] worked out at 82400 M⁻¹ s⁻¹; in [3], 750000 M⁻¹ s⁻¹; in assay [4], 1.11e+06 M⁻¹ s⁻¹.

B2: AB0089 TriNKET (bispecific antibody, human IgG1, kappa)
chain: B1 chain with S53V, K56A, K71V, Y98G, D101G, S103T, R207D, I220F
heavy: B1 heavy
light: B1 light
notes: F3' format heterodimer of three chains; human IgG1 Fc with EW-RVT and Y349C/S354C mutations; also called AB0089 Lot AB0089-002; CLEC12A TriNKET AB0089
B2: the equilibrium dissociation constant (Kd) in assay [5] came out at 333 nM; in [6] it was 881 nM; in assay [7], 8900 nM; in assay [9] it was 323 nM; in [10] it was 772 nM; in assay [11], 1000 nM. The koff in assay [5] amounted to 0.0277 s⁻¹; in [6], 0.143 s⁻¹; in assay [8] it was 0.0481 s⁻¹; in assay [9], 0.0276 s⁻¹; in assay [10], 0.135 s⁻¹. Moreover, the kon in assay [5] came out at 83100 M⁻¹ s⁻¹; in assay [6] it was 162000 M⁻¹ s⁻¹; in assay [9], 85300 M⁻¹ s⁻¹; in assay [10] it was 175000 M⁻¹ s⁻¹.

B3: AB0192 TriNKET (other)
chain: EVQLVESGGGVVQPGGSLRLSCAASGFTFNAFGMHWVRQAPGKCLEWVAFISSGSTSIYYANTVKGRFTISRDNSKNTLYLQMNSLRAEDTAVYYCARDGYPTGGAMDYWGQGTSVTVSSGGGGSGGGGSGGGGSGGGGSDIQMTQSPSSLSASVGDRVTITCKASQDIYNYLSWFQQKPGKAPKPLIYRANILVSGVPSRFSGSGSGQDYTFTISSLQPEDIATYYCLQFDAFPFTFGCGTKLEIKGSDKTHTCPPCPAPELLGGPSVFLFPPKPKDTLMISRTPEVTCVVVDVSHEDPEVKFNWYVDGVEVHNAKTKPREEQYNSTYRVVSVLTVLHQDWLNGKEYKCKVSNKALPAPIEKTISKAKGQPREPRVYTLPPCRDELTKNQVSLTCLVKGFYPSDIAVEWESNGQPENNYKTTPPVLVSDGSFTLYSKLTVDKSRWQQGNVFSCSVMHEALHNHYTQKSLSLSPG
heavy: B1 heavy
light: B1 light
notes: the condition stands under assay; also called AB0192 Lot AB0192-005
With B3, in [12], the Kd was determined as 4.51 nM, the koff is 0.0037 s⁻¹ and the kon turned out to be 824000 M⁻¹ s⁻¹. Besides, the equilibrium dissociation constant (Kd) in assay [13] turned out to be 680 nM. The same molecule had a Kd in [14] of 204 nM.

B4: F3'-1602 TriNKET (other)
chain: B1 chain
heavy: B1 heavy
light: B1 light
notes: CLEC12A scFv-Fc, NKG2D A49MI Fab-Fc, human IgG1 Fc; also called AB0237
Regarding B4, the Kd in assay [15] is 1500 nM; in assay [16], 1130 nM and 1120 nM and 1090 nM.
